Source: article PMC10909901

Columns and labels:
[1] = biological target: RRS1-R-YFP (Arabidopsis thaliana) (UniProt C4B7M5); assay: FRET or BRET
[2] = biological target: AtWRKY22-YFP (Arabidopsis thaliana) (UniProt O04609); assay: FRET or BRET
UniProt O04609, sequence (O04609 whole entry): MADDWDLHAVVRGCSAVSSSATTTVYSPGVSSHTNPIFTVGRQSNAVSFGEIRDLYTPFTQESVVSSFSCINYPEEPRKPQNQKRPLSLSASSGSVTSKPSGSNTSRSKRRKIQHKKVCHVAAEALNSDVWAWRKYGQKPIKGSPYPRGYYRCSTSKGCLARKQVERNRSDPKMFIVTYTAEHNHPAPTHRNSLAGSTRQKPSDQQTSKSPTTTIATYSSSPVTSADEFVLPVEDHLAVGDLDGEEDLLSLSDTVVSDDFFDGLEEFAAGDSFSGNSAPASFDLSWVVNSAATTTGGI

UniProt C4B7M5, sequence (C4B7M5 whole entry): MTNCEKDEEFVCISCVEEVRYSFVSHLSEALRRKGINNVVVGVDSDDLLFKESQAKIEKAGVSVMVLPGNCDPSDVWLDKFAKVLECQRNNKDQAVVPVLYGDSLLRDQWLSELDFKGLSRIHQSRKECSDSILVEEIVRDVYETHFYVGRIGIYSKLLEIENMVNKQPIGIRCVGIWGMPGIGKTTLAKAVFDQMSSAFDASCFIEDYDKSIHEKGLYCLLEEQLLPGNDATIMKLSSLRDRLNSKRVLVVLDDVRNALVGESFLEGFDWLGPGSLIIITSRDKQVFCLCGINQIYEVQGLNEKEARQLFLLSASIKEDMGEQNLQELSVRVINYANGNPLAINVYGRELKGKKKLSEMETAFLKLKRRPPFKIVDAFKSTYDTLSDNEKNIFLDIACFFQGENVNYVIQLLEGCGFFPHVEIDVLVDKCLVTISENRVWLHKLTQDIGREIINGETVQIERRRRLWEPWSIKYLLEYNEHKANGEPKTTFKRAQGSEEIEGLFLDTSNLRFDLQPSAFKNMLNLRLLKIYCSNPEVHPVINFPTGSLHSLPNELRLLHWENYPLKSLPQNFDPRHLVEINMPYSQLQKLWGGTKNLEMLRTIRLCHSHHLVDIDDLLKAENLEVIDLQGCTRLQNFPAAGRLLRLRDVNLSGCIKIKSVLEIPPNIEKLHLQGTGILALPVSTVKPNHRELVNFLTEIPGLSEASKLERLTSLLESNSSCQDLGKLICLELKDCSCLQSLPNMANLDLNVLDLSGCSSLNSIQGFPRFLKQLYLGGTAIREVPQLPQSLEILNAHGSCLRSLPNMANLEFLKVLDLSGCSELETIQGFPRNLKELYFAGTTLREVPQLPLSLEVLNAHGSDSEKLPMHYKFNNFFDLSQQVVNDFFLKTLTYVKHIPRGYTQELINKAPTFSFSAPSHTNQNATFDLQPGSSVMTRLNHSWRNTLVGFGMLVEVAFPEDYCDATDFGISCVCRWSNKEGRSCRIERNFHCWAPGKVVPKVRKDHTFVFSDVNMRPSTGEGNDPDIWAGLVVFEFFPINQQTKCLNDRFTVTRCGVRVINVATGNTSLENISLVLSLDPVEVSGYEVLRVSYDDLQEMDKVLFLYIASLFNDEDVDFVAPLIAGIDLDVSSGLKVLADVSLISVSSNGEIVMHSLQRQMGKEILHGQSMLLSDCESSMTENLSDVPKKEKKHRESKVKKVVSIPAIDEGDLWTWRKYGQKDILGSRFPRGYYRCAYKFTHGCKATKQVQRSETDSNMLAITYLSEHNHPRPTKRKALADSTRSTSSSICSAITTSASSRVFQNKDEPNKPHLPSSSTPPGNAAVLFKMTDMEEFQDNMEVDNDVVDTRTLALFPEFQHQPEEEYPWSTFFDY

## XopJ6^C409A-CFP (natural protein)
[1]
  FRET efficiency E: 12.1%
  mean CFP donor lifetime T in the presence of the acceptor: 3.27 ns
  Δt (decrease of donor lifetime): 452 ps
[2]
  FRET efficiency E: 9.67%
  mean CFP donor lifetime T in the presence of the acceptor: 3.36 ns

## XopJ6_(CN06)-CFP (natural protein)
[1]
  FRET efficiency E: 15%
  mean CFP donor lifetime T in the presence of the acceptor: 3.27 ns
  Δt (decrease of donor lifetime): 578 ps
[2]
  FRET efficiency E: 9.49%
  mean CFP donor lifetime T in the presence of the acceptor: 3.48 ns
  Δt (decrease of donor lifetime): 365 ps
